# Target: eIF5-CTD_(-CTT)-EE, phosphomimetic mutant S389E/S390E (human) (UniProt P55010)
# Assay: NMR titration
# UniProt P55010, sequence (P55010 232-431 S389E/S390E): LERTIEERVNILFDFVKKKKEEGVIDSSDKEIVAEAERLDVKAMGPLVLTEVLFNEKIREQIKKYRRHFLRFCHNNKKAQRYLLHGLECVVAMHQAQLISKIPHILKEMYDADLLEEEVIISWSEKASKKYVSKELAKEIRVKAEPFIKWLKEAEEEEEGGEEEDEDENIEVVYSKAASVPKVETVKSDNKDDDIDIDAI
% CSP reduction at E17 of eIF1A-ΔC bound to m7 [%],% CSP reduction at G5 of eIF1A-ΔC bound to m7 [%],% CSP reduction at L25 of eIF1A-ΔC bound to m7 [%],% CSP reduction at V26 of eIF1A-ΔC bound to m7 [%],% CSP reduction at W69 of eIF1A-ΔC bound to m7 [%],% CSP reduction at Y83 of eIF1A-ΔC bound to m7 [%],Substance
83,95,62,38,63,–,N-terminal tail of the β subunit of eIF2 (eIF2β-NTT) (domain or fragment)
32,40,20,24,22,18,eIF1A N-terminal tail (eIF1A-NTT) (domain or fragment)

# Source: article PMC9508154
